Here are results for 19 molecules from patent US20190367615A1 (BEIJING HANMI PHARM, published 2019).

Positions count from the first letter of the chain named. Numbers in names are those of the source.

B1: murine anti-human PD-1 monoclonal antibody secreted by Clone No. 2 (antibody, V domains shown)
VH: EVQLQESGGGLVKPGGSLKLSCAASGFTFSSYGMSWVRQTPEKRLEWVASISGGGRYTYYPDSMKGRFTISRDNAKNNLHLQMSSLRSEDTALYYCVYEYFYTMDYWGQGTSVTVSS
VL: DIVLTQSPATLSVTPGDSVSLSCRANQSISNNLHWYQQRSHESPRLLIRFASQSISGIPSRFSGSGSGTDFTLSINSVETEDFGMYFCQQSDNWPLTFGAGTKLEIK
notes: Hybridoma culture supernatant; Clone No. 2 is the only clone named, so the tie is implicit
B2: AH00291 (antibody, human IgG4 S228P, kappa)
heavy: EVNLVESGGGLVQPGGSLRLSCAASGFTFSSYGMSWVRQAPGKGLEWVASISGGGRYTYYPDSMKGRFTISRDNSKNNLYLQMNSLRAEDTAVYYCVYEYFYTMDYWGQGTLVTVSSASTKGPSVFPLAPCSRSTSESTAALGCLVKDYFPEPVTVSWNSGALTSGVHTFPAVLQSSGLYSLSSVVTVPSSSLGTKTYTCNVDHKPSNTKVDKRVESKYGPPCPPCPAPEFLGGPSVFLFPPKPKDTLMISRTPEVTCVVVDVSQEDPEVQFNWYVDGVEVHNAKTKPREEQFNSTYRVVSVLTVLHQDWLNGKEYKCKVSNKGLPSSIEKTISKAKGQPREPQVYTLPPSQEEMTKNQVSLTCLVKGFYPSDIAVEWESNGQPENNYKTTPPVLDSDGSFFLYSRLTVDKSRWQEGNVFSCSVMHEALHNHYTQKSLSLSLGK
light: DIVLTQSPATLSLSPGERATLSCRANQSISNNLHWYQQKPGQAPRLLIRFASQSISGIPARFSGSGSGTDFTLTISSLEPEDFAVYFCQQSDNWPLTFGGGTKVEIKRTVAAPSVFIFPPSDEQLKSGTASVVCLLNNFYPREAKVQWKVDNALQSGNSQESVTEQDSKDSTYSLSSTLTLSKADYEKHKVYACEVTHQGLSSPVTKSFNRGEC
notes: also called humanized anti-human PD-1 monoclonal antibody AH00291
B3: AH00294-N26S (antibody, human IgG4 S228P, kappa)
heavy: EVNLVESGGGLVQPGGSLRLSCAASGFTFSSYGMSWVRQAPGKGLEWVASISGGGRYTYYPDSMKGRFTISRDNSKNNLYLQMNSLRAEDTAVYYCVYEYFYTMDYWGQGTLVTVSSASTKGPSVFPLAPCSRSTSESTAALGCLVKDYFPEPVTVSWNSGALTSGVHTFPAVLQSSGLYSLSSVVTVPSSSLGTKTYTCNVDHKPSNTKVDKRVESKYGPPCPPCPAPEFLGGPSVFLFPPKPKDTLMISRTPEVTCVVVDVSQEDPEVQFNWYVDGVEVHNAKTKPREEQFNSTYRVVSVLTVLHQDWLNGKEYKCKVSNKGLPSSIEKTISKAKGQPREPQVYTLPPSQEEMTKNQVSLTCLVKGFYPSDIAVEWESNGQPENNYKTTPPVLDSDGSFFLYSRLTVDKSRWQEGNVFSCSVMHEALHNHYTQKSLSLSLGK
light: B2 light with I2V, N26S
B4: AH00294-N26Q (antibody, human IgG4 S228P, kappa)
heavy: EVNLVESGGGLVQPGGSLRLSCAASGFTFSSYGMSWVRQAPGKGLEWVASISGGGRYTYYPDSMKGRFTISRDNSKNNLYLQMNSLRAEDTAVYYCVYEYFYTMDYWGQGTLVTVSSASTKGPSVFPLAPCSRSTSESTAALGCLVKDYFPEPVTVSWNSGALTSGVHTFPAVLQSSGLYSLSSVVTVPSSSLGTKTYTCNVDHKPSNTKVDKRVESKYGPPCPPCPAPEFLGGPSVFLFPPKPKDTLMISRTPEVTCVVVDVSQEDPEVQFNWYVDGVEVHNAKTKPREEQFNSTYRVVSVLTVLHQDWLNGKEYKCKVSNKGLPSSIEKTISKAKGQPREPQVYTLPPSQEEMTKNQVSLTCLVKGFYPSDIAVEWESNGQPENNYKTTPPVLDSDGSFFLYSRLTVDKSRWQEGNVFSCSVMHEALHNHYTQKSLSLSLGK
light: B2 light with I2V, N26Q
B5: AH00294-S28A (antibody, human IgG4 S228P, kappa)
heavy: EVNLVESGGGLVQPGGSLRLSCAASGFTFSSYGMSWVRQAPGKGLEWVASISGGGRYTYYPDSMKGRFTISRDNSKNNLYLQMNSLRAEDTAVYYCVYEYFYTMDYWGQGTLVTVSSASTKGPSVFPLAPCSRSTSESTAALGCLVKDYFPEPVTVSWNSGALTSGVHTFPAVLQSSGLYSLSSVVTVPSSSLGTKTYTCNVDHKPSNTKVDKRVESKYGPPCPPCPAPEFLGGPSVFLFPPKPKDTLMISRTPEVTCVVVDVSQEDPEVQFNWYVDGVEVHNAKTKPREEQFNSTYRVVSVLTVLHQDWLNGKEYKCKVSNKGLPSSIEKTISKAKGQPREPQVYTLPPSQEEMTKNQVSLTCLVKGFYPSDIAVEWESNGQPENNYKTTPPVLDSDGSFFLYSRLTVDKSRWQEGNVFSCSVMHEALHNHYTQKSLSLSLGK
light: B2 light with I2V, S28A
B6: AH00296-N26S (antibody, human IgG4 S228P, kappa, V domains shown)
VH: EVNLVESGGGLVQPGGSLRLSCAASGFTFSSYGMSWVRQAPGKGLEWVASISGGGRYTYYPDSMKGRFTISRDNSKNTLYLQMNSLRAEDTAVYYCVYEYFYTMDYWGQGTLVTVSS
VL: DIVLTQSPATLSLSPGERATLSCRASQSISNNLHWYQQKPGQAPRLLIRFASQSISGIPARFSGSGSGTDFTLTISSLEPEDFAVYFCQQSDNWPLTFGGGTKVEIKR
notes: also called AII00296-N26S
B7: AH00296-S28A (antibody, human IgG4 S228P, kappa, V domains shown)
VH: B6 VH
VL: B6 VL with S26N, S28A
B8: AH00296-N26Q (antibody, human IgG4 S228P, kappa, V domains shown)
VH: B6 VH
VL: B6 VL with S26Q
B9: AH00290 (antibody, human IgG4 S228P, kappa, V domains shown)
VH: B6 VH with A49S
VL: B6 VL with S26N
notes: also called humanized anti-human PD-1 monoclonal antibody AH00290
B10: AH00293 (antibody, human IgG4 S228P, kappa, V domains shown)
VH: B6 VH with T78N
VL: B6 VL with S26N, F87Y
notes: also called humanized anti-human PD-1 monoclonal antibody AH00293
B11: BMIII (antibody, human IgG4 S228P, kappa, V domains shown)
VH: B6 VH with A40T, T78N
VL: B6 VL with I2V, L13V, A19V, S26N, A43S, L78V, A84G, V104L
B12: AH00295 (antibody, human IgG4 S228P, kappa)
heavy: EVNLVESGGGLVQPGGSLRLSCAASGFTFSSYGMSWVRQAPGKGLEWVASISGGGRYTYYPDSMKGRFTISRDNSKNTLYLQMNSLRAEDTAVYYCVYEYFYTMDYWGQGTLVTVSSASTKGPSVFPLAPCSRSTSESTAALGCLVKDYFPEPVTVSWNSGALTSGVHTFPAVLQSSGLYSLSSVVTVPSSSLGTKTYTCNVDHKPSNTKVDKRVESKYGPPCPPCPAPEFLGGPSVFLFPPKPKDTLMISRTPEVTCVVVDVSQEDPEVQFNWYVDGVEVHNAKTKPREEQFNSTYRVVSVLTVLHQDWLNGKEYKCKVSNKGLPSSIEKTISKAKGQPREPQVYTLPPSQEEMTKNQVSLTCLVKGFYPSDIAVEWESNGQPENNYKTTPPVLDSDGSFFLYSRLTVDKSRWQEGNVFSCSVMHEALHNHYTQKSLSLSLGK
light: B2 light with D1E, I2V
notes: also called humanized anti-human PD-1 monoclonal antibody AH00295
B13: AH00291-N26S (antibody, human IgG4 S228P, kappa)
heavy: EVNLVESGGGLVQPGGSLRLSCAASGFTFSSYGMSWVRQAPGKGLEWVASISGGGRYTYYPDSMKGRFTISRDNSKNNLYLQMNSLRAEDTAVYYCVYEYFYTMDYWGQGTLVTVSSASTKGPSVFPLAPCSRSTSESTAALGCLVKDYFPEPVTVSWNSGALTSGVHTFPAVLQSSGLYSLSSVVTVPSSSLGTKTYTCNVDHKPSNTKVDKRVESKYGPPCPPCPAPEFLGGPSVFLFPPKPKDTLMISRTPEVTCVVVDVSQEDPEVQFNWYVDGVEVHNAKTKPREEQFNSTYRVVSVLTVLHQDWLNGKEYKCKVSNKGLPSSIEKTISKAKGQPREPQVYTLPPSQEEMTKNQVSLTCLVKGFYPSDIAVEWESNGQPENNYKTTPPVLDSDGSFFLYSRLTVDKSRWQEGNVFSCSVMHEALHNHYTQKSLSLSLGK
light: B2 light with N26S
B14: AH00298 (antibody, human IgG4 S228P, kappa)
heavy: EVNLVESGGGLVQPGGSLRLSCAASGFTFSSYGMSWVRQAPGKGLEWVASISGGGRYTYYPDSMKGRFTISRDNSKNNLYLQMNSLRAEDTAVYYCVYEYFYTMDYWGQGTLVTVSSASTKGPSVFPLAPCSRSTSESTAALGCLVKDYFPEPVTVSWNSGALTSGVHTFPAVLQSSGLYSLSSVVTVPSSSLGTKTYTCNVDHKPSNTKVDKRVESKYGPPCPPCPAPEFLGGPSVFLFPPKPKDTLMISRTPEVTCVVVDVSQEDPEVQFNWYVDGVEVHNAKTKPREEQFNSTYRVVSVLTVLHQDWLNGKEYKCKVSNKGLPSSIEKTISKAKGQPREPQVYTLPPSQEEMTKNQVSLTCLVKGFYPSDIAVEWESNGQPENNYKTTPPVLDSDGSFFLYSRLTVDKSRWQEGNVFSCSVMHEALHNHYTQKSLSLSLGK
light: B2 light with D1E, I2V
notes: also called humanized anti-human PD-1 monoclonal antibody AH00298
B15: AH00291-N26Q (antibody, human IgG4 S228P, kappa)
heavy: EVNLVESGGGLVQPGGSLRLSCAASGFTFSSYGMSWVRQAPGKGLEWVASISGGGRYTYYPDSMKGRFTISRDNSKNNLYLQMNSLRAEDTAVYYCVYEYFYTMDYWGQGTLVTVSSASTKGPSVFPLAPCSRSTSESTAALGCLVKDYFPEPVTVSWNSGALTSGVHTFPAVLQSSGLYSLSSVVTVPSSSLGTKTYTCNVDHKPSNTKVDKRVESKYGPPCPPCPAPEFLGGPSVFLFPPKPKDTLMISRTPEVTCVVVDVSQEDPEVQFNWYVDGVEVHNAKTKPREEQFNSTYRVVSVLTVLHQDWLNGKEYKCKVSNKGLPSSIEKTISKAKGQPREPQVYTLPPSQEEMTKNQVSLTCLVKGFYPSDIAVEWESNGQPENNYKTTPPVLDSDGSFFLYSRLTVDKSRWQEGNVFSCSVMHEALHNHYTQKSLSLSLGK
light: B2 light with N26Q
B16: AH00296 (antibody, human IgG4 S228P, kappa)
heavy: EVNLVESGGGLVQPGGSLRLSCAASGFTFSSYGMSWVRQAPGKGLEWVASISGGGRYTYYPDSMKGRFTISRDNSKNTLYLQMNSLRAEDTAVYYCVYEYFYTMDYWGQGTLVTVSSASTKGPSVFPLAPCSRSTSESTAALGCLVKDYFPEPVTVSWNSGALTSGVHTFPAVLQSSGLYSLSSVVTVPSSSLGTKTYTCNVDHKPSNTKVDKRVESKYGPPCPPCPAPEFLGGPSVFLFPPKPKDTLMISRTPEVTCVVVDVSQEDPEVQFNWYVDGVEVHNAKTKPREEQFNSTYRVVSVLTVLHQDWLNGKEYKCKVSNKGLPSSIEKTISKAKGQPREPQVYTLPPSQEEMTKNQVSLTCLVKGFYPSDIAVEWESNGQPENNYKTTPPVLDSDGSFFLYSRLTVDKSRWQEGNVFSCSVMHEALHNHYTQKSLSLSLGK
light: B2 light
notes: also called humanized anti-human PD-1 monoclonal antibody AH00296
B17: AH00291-S28A (antibody, human IgG4 S228P, kappa)
heavy: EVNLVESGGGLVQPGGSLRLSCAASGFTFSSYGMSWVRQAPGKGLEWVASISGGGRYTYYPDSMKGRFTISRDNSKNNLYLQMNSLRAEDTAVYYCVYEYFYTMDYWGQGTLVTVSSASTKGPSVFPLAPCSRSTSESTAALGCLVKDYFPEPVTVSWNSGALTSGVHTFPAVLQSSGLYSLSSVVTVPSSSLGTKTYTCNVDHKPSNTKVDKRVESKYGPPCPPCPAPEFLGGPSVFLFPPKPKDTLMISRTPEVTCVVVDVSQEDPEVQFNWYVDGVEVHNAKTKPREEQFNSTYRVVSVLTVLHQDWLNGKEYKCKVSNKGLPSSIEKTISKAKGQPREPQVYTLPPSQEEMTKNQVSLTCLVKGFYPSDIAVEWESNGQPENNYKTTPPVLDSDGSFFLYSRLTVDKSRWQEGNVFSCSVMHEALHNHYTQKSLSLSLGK
light: B2 light with S28A
B18: AH00294 (antibody, human IgG4 S228P, kappa)
heavy: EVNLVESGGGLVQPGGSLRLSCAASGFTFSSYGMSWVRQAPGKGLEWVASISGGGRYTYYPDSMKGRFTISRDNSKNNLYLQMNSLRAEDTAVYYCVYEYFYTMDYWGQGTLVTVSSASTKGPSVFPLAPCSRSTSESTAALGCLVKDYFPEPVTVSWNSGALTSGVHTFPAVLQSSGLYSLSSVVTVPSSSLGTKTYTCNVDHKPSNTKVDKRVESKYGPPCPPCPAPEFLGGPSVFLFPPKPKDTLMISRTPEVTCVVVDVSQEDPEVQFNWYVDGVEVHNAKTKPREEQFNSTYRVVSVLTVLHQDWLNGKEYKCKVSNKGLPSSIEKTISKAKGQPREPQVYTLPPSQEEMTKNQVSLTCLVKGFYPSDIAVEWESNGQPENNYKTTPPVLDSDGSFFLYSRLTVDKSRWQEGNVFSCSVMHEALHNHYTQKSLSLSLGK
light: B2 light with I2V
notes: also called humanized anti-human PD-1 monoclonal antibody AH00294
B19: BMIV (antibody, human IgG4 S228P, kappa, V domains shown)
VH: B6 VH with A40T, T78N, Y80H, N84S
VL: DVVLTQSPATLSVSPGERVTLSCRANQSISNNLHWYQQKSHQSPRLLIRFASQSISGIPARFSGSGSGTDFTLTISSVETEDFGVYFCQQSDNWPLTFGGGTKLEIKR

T1 sequence (Q15116 25-167 limits assumed): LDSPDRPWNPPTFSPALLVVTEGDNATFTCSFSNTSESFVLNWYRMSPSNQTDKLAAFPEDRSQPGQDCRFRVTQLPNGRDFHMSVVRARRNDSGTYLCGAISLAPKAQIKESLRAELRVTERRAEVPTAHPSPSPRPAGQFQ

The first experiment has as its target T1, Recombinant human PD-1 (Sino Biological Inc., Catalog Number 10377-H08H) (human, UniProt Q15116 25-167).
T1 construct: Bought protein; also called antigen PD-1
Nature of the experiment: ELISA, coated recombinant human PD-1 (1 ug/mL), detection with anti-mouse IgG-HRP, OD450nm. The protocol:
(§1) The plate was washed five times with PBST. […] The plate was washed five times with PBST. […] The plate was washed five times with PBST. 100 μL/well of colorimetric substrate TMB was added and incubated at room temperature for 10 minutes. Color development was terminated by adding 100 μL/well of 1 M H₂SO₄. The absorbance at 450 nm was read on a microplate reader.
(An ELISA detects its analyte on a solid surface through an enzyme-linked reagent.)
The EC50 is the concentration giving half of the maximal effect. For B1, the EC50 was 0.052 nM.

The target in a further experiment is T2, Recombinant human PD-1-Fc (human, UniProt Q15116 25-167, limits assumed).
T2 construct: also called recombinant human PD-1-Fc protein; not shown: Fc part
T2 sequence (Q15116 25-167 limits assumed): as above
Nature of the experiment: competition ELISA, PD-1-Fc coated, competitor biotin-labeled PD-L1. The protocol: Recombinant human PD-1-Fc was coated on a 96-well high-absorbing ELISA plate with a carbonate buffer solution with pH 9.6, the coating concentration was 1 μg/mL, the coating amount was 100 μL per well, and the coating was carried at 4° C. out overnight. The plate was washed five times with PBST and blocked with 300 μL/well of PBST containing 1% BSA and incubated at 25° C. for 1 hour. The plate was washed five times with PBST. The positive control and the anti-human PD-1 antibody sample were added, 50 μL per well. […] The plate was washed five times with PBST. Then, Streptavidin-HRP (BD Pharmingen, Catalog Number 554066) 1:1000 diluted in PBST containing 1% BSA was added, 100 μL per well, incubated at 25° C. for 1 hour. The plate was washed five times with PBST. 100 μL/well of colorimetric substrate TMB was added and incubated at room temperature for 10 minutes. Color development was terminated by adding 100 μL/well of 1 M H₂SO₄. The absorbance at 450 nm was read on a microplate reader.
A word on the IC50: it is the concentration needed to halve the response being measured. For B2, the concentration for half-maximal inhibition (IC50) amounted to 1.1 nM.

On to B3, for which the IC50 came to 1.48 nM.

For B4, the IC50 was found to be 1.49 nM.

In the case of B5, the IC50 was 1.46 nM.

B6: the IC50 was 1.07 nM.

Regarding B7, the IC50 was found to be 1.75 nM.

For the molecule B8, the half-maximal inhibitory concentration (IC50) amounted to 1.27 nM.

Turning to B9, the half-maximal inhibitory concentration (IC50) is 1.09 nM.

B10: the IC50 worked out at 1.2 nM.

In the case of B11, the IC50 was 1.2 nM.

B12: the half-maximal inhibitory concentration (IC50) is 1.19 nM.

In the case of B13, the IC50 was found to be 1.43 nM.

On to B14, for which the IC50 was determined as 1.22 nM.

With B15, the IC50 was 1.57 nM.

As for B16, the IC50 was 1.21 nM.

As for B17, the concentration for half-maximal inhibition (IC50) was 1.36 nM.

In the case of B18, the half-inhibitory concentration (IC50) is 1.35 nM.

For B19, the IC50 turned out to be 1.3 nM.

The next experiment deals with T2, Recombinant human PD-1-Fc. Nature of the experiment: competition ELISA, coated human PD-1-Fc, blocked ligand biotin-labeled PD-L1 (final 10 nM), streptavidin-HRP, OD450nm. As for the experimental part:
as §1
On to B1, for which the half-maximal inhibitory concentration (IC50) came out at 0.838 nM.

For a further experiment, the target named is T1, Recombinant human PD-1 (Sino Biological …). As to the kind of experiment: ELISA, human PD-1 coated. The protocol:
Recombinant human PD-1 (purchased from Sino Biological Inc.) was coated on a 96-well high-absorbing ELISA plate with a carbonate buffer solution with pH 9.6, the coating concentration was 1 μg/mL, the coating amount was 100 μL per well, and the coating was carried out at 4° C. overnight. The plate was washed five times with PBST and blocked with 300 μL/well of PBST containing 1% BSA, and then incubated at 25° C. for 1 hour. The plate was washed five times with PBST. […] The plate was washed five times with PBST. Then, horseradish peroxidase-labeled anti-human IgG antibody (Chemicon, Catalog Number AP309P) 1:2000 diluted in PBST containing 1% BSA was added, 100 μL per well, incubated at 25° C. for 1 hour. The plate was washed five times with PBST. 100 μL/well of colorimetric substrate TMB was added and incubated at room temperature for 10 minutes. Color development was terminated by adding 100 μL/well of 1 M H₂SO₄. The absorbance at 450 nm was read on a microplate reader.
With B2, the EC50 stood at 0.025 nM.

On to B3, for which the EC50 was 0.043 nM.

As to B4, the EC50 amounted to 0.041 nM.

In the case of B5, the 50% effective concentration (EC50) turned out to be 0.047 nM.

On to B6, for which the half-maximal effective concentration (EC50) stood at 0.037 nM.

Take B7: the concentration for a half-maximal effect (EC50) was found to be 0.048 nM.

For B8, the concentration for a half-maximal effect (EC50) was 0.044 nM.

B9: the EC50 worked out at 0.024 nM.

With B10, the EC50 is 0.026 nM.

For the molecule B11, the EC50 stood at 0.034 nM.

Take B12: the concentration for a half-maximal effect (EC50) was 0.025 nM.

In the case of B13, the EC50 amounted to 0.039 nM.

As to B14, the EC50 worked out at 0.028 nM.

Turning to B15, the EC50 came to 0.046 nM.

For B16, the concentration for a half-maximal effect (EC50) came out at 0.027 nM.

Take B17: the EC50 was found to be 0.042 nM.

Consider B18, for which the 50% effective concentration (EC50) was 0.032 nM.

With B19, the EC50 was determined as 0.028 nM.
